Numbering of substitutions follows the chain as printed. In names and notes the source's numbering stands. Read-outs that look alike come from different tables or passages of the source.

We go through 6 molecules from patent US20260116946A1, “NOVEL CD200 FUSION PROTEINS” (DUCENTIS BIOTHERAPEUTICS LIMITED, priority 2022, published 2026).

For assay [1], the target named is Recombinant Human CD200R, His-tagged (Creative Biomart CD200R1-320H) (human) (UniProt Q8TD46). Description: SPR (BIAcore T200), CD200-Fc captured on anti-human Fc, human CD200R in solution, 25 C, mean of two runs. Background: Surface plasmon resonance follows binding to a sensor surface in real time, without labels.
The target of assay [2] is Recombinant Cyno CD200R, His-tagged (Creative Biomart CD200R1-3483C) (cynomolgus) (UniProt G7NZT0). The assay can be described thus: SPR (BIAcore), DS-155 captured via anti-human Fc, CynoCD200R1 as analyte, DRC = 1000 nM to 62.5 nM (5 curves), 25 °C, 1:1 Binding fit; Run 2.
For assay [3], the target named is Recombinant Human CD200R, His-tagged (Creative Biomart CD200R1-320H) (human) (UniProt Q8TD46). Description: SPR (BIAcore), DS-155 captured via anti-human Fc, HuCD200R1 as analyte, DRC = 500 nM to 31.25 nM (5 curves), 25 °C, 1:1 Binding fit; Run 1.
The target is the same in assay [4]. The assay can be described thus: SPR (BIAcore T200), CD200-Fc captured on anti-human Fc, human CD200R in solution, 25 C.
For assay [5], the target named is Recombinant Cyno CD200R, His-tagged (Creative Biomart CD200R1-3483C) (cynomolgus) (UniProt G7NZT0). The assay can be described thus: SPR (BIAcore T200), CD200-Fc captured on anti-human Fc, cyno CD200R in solution, 25 C.
For assay [6], the target named is Recombinant Human CD200R, His-tagged (Creative Biomart CD200R1-320H) (human) (UniProt Q8TD46). Description: SPR (BIAcore), DS-155 captured via anti-human Fc, HuCD200R1 as analyte, DRC = 500 nM to 31.25 nM (5 curves), 25 °C, 1:1 Binding fit; Run 2.
For assay [7], the target named is Recombinant Cyno CD200R, His-tagged (Creative Biomart CD200R1-3483C) (cynomolgus) (UniProt G7NZT0). Description: SPR (BIAcore), DS-155 captured via anti-human Fc, CynoCD200R1 as analyte, DRC = 1000 nM to 62.5 nM (5 curves), 25 °C, 1:1 Binding fit; Run 1.
Assay [8] shares this target. The assay can be described thus: SPR (BIAcore T200), CD200-Fc captured on anti-human Fc, cyno CD200R in solution, 25 C, mean of two runs.
The target in assay [9] is Recombinant Human CD200R, His-tagged (Creative Biomart CD200R1-320H) (human) (UniProt Q8TD46). Description: not described (affinity label of the construct for CD200R).
For assay [10], the target named is T1, muCD200R-Fc (Creative Biomart CD200R1-458M) (mouse, UniProt Q9ES57 26-238).
T1 construct: Bought reagent; also called captured CD200R; not shown: Fc part of the bought fusion; captured on anti-human IgG Fc
T1 sequence (looked up): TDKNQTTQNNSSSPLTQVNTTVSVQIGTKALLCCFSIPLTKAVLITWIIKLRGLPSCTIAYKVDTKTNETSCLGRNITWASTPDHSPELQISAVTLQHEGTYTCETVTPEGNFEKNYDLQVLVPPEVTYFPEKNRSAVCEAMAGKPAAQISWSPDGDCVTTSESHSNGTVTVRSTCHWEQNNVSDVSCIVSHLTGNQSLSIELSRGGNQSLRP
The assay can be described thus: SPR, muCD200R-Fc captured on anti-human IgG Fc, CD200 monomers in solution. How it is done:
For human CD200 constructs: anti-human Fc (GE Healthcare) was covalently immobilized on a BIAcore CM5 sensor chip (Cytiva, BR100530) by amine coupling using a Cytiva kit (BR100839) following the manufacturer's instructions, targeting immobilization of 8,000-11,000 RU. CD200-Fc proteins were diluted to 0.5 μg/mL to 4 μg/mL in running Buffer (1×HBS-EP+pH7.4 (Cytiva BR100669), HEPES Buffered Saline pH 7.4 containing 3 mM EDTA and 0.05% v/v Surfactant P20) and flowed for 25 to 100 seconds at […] over the immobilized Anti-Human IgG Fc, with a stabilization time of 60 seconds. Between 35 and 250 RUs of CD200-Fc were captured, with higher RUs used for cynomolgus CD200R binding experiments. […] Analysis temperature was 25° C. This was followed by regeneration of the surface with 30-90 second pulse of 3M MgCl₂ flowed at 30 μL/min flow rate followed by stabilization of the surface with 60 second flow of running buffer.
(§1) For mouse CD200 constructs, muCD200R-Fc (Creative Biomart CD200R1-458M) diluted to 1 μg/mL in running buffer was flowed over the immobilized Anti-Human IgG Fc, with CD200 monomers serially diluted and flowed over captured CD200R. Other details were as above. Data analysis: experimental sensorgrams were analyzed in BIAevaluation software (GE Healthcare). The curves obtained were fitted to 1:1 Langmuir binding model by setting Rmax and RI as local parameters. Rate equations using standard parameters (e.g. ligand concentration, time) were used for iterative curve fitting. Closeness of fit was determined by algorithms provided by the manufacturer in the BIAevaluation software, and data accepted if the Chi² value was less than 10% of Rₘₐₓ, and the U value was less than or equal to 15.

The target in assay [11] is T2, muCD200R-Fc (Mus musculus, UniProt Q9ES57).
T2 construct: purchased Creative Biomart CD200R1-458M
T2 sequence (Q9ES57 26-238 limits assumed): T1 sequence (looked up)
Description: BIAcore SPR binding of murine CD200 variants to muCD200R-Fc. The protocol:
as §1, with “Chi^2” for “Chi²”, “Rmax,” for “Rₘₐₓ,”
Murine CD200 constructs used Uniprot sequence O54901, containing the signal peptide and extracellular domains. Mutation numbers refer to the full Uniprot sequences including signal peptide.
Proteins were generated by transient transfection of pcDNA 3.1-based expression plasmids into CHO-3E7 cells using Polyethyleneimine (PEI). 24 hours post transfection, cultures were shifted to 32° C., fed with 10% feed C, glutamine, glucose and […] Sodium butyrate; supernatants were harvested and filtered at day 7. Purification was performed at 4° C. using MabSelect SuRe 5 ml affinity columns (Cytiva), pre-equilibrated with 50 mM Sodium Phosphate, 150 mM NaCl PH 7.4, at a flowrate of 3 mL/min on a AKTA Pure platform. The column was washed with equilibration buffer and bound protein eluted using 20 mM sodium acetate, 150 mM NaCl pH 3.5. Elutes were neutralized with 10% v/v 1 M Tris pH 8.0 and analysed by SDS-PAGE. Pooled fractions were concentrated to 5 mL and subjected to gel-filtration chromatography (Hiload 16/600 Superdex-200 pg column) on a AKTA Pure platform. The protein was processed in 50 mM Sodium Phosphate, 150 mM NaCl pH 7.4 buffer system at 1.2 mL/min. Fractions containing protein were pooled and concentrated using an Amicon Ultra Centricon (10 kDa molecular weight cut-off) to 1.33 mg/mL (measured at UV 280 nm). The purified material was subjected to SEC-HPLC, LC-MS and EndoSafe LAL cartridge test to assess protein purity, molecular mass and endotoxin content, respectively. Mouse CD200-his proteins were purified with Ni-NTA agarose resin using standard methodology. All proteins were stored at −80° C.

The test system of assay [12] is male DBA/1J mice. The assay can be described thus: Mouse collagen-induced arthritis (CIA) model, preventative dosing. The assay is classed as in vivo. To be noted: 3 mg/kg once every 3 days, day 22 to 36; scores day 25-36. The protocol: Wild type (DS-198) and higher affinity (DS-227) murine CD200-Fc proteins were tested using a CIA model by initiating dosing just prior to symptom onset. Arthritis was induced in male DBA/1J mice by intradermal injection of bovine type II collagen in CFA (complete Freund's adjuvant) on day 1, followed by a booster injection in incomplete Freund's adjuvant on day 21. […] Clinical scores of paw arthritis (blinded assessment) were measured from day 25-36 on alternate days. The data in FIG. 9 are shown as Mean±SEM. **p<0.01; ***p<0.001 vs Disease+Dexa, Disease+DS-198, & Disease+DS-227. Two-way RM ANOVA followed by Tukey's multiple comparisons test.

The mark [13] stands for this setting: murine CD200, stated in text, read-out: binding affinity.

Recombinant Human CD200R, His-tagged (Creative Biomart CD200R1-320H) (human), sequence (Q8TD46 27-266 limits assumed): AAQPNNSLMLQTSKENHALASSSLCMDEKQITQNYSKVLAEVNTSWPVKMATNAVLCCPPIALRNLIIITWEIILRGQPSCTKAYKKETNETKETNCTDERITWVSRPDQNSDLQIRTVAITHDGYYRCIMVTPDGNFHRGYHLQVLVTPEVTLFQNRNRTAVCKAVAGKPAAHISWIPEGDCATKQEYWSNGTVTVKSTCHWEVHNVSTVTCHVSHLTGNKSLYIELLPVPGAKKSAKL

On to “DS-155 (wild-type human CD200-Fc, IgG4 S228P) (from UniProt P41217 31-232; P01861 99-327) (Fc fusion)”, for which the Kd worked out at 179 nM in assay [1]; 1050 nM in [2]; 174 nM in assay [3]; 183 nM in assay [6]; 888 nM in [7]; 971 nM in assay [8]. Besides, the koff (commonly the first-order rate constant of dissociation) in assay [1] stood at 0.0326 s⁻¹; in [2], 0.0608 s⁻¹; in assay [3], 0.0324 s⁻¹; in assay [6], 0.0329 s⁻¹; in assay [7], 0.0564 s⁻¹; in [8], 0.0586 s⁻¹. Moreover, the kon – broadly, a measure of how fast the partners come together – turned out to be 183000 M⁻¹ s⁻¹ in assay [1]; 57600 M⁻¹ s⁻¹ in [2]; 186000 M⁻¹ s⁻¹ in assay [3]; 180000 M⁻¹ s⁻¹ in assay [6]; 63500 M⁻¹ s⁻¹ in assay [7]; 60600 M⁻¹ s⁻¹ in assay [8]. In addition, the t½ – broadly, how long it takes for the measured level to halve – is 21 s in assay [4] and 12 s in assay [5].
As for “DS-192 (human CD200 K130Y - IgG4 S228P Fc) (from UniProt P41217 31-232; P01861 99-327) (Fc fusion)”, in assay [9], the Kd is 13 nM.

B1: murine CD200 wild type (Table 7 'wt') (ligand, mouse, UniProt O54901 31-232, looked up)
chain: QVEVVTQDERKALHTTASLRCSLKTSQEPLIVTWQKKKAVSPENMVTYSKTHGVVIQPAYKDRINVTELGLWNSSITFWNTTLEDEGCYMCLFNTFGSQKVSGTACLTLYVQPIVHLHYNYFEDHLNITCSATARPAPAISWKGTGTGIENSTESHFHSNGTTSVTSILRVKDPKTQVGKEVICQVLYLGNVIDYKQSLDKG
notes: extracellular domain; The Fc fusion with the same CD200 part is DS-198 (muIgG2a); also called mouse CD200-his; CD200 monomer
With B1, in assay [10], the “T1/2” value was found to be 17.3 s.

B2: H82Y, T125I: murine CD200 combination variant H82Y, T125I of Table 7 (protein)
chain: B1 chain with H52Y, T95I
Regarding B2, the Kd in assay [11] (setting [13]) stood at 43 nM; in assay [11] (murine CD200 variants, table head prints no unit, nM, read-out: KD), 43.3 ± 4.9 nM. Moreover, the “fold higher binding affinity than wild type” value in assay [11] (versus wild type murine CD200) is listed as “approximately 14 fold”.

B3: DS-227: high affinity murine CD200-Fc, CD200 H82Y, T125I, muIgG2a Fc (protein)
chain: B1 chain with H52Y, T95I
modifications: left off: small tags and cut ends
For B3, in assay [11] (setting [13]), the Kd was 43 nM. Moreover, the “clinical score of paw arthritis” value in assay [12] was “significantly more potent in reducing clinical score than wild type (DS-198)”.

B4: murine CD200 H82Y, T125I (Table 7 combination variant) (ligand, mouse, UniProt O54901 31-232, looked up)
chain: B1 chain with H52Y, T95I
notes: extracellular domain; The Fc fusion with the same mutations is DS-227 (muIgG2a, called '43 nM muCD200-Fc'); also called combination variant H82Y, T1251; mouse CD200-his
As for B4, in assay [10], the “T1/2” value stood at 118 s and the “fold higher binding affinity than wild type” value is ~14 fold.
